According to US20190218553, “VON WILLEBRAND FACTOR (VWF)-TARGETING AGENTS AND METHODS OF USING THE SAME” (DUKE UNIVERSITY, published 2019):

Key:
[1] = biological target: T1, von Willebrand factor (VWF) (Homo sapiens, UniProt P04275 P04275:764-2813); experiment: filter; Bmax 79%; 2 mM CaCl2, 37 C; settings: tags: factor VIII free, Haematologic Technologies Inc; label: 5'-32P
Description: (§1) Affinity constants (Kd values) were determined using double-filter nitrocellulose filter binding assays (Rusconi et al, Thromb. Haemost. $4:841-848 (2000)). All binding studies were performed in binding buffer F (20 mM HEPES, pH 7.4, 150 mM NaCl, 2 mM CaCl₂, and 0.01% BSA) at 37° C. Human purified VWF (factor VIII free) was purchased from Haematologic Technologies Inc. (Essex Junction, Vt.) and used in the double-filter nitrocellulose filter binding assay to determine the Kd of the aptamers. Briefly, RNA were end-labeled at the 5′ end with T4 polynucleotide kinase (New England Biolabs, Beverly, Mass.) and [γ³²P] ATP (Amersham Pharmacia Biotech, Piscataway, N.J.) (Fitzwater and Polisky, Methods Enzymol. 267:275-301 (1996)). End-labeled RNA was diluted in binding buffer F, heat denatured at 65° C. for 5 minutes, and subsequently equilibrated at 37° C. Direct binding was performed by incubating trace ³²P-RNA with varying concentrations of VWF protein in binding buffer F at 37° C. for 5 min. The fraction of the nucleic acid-protein complex which bound to the nitrocellulose membrane was quantified with a phosphorimager (Molecular Dynamics, Sunnyvale, Calif.). Non-specific binding of the radiolabeled nucleic acid was subtracted out of the binding such that only specific binding remained (Wong and Lohman, Proc. Natl. Acad. Sci. USA 90:5428-5432 (1993)).

[2] = biological target: T1, von Willebrand factor (VWF); experiment: filter; Bmax 73%; 2 mM CaCl2, 37 C; settings: Haematologic Technologies Inc, label: 5'-32P
Description: as §1

[3] = biological target: T1, von Willebrand factor (VWF); experiment: filter; Bmax 56%; 2 mM CaCl2, 37 C; settings: tags: factor VIII free, Haematologic Technologies Inc; label: 5'-32P
Description: as §1

[4] = biological target: T1, von Willebrand factor (VWF); experiment: filter; Bmax 62%; 2 mM CaCl2, 37 C; settings: tags: factor VIII free, Haematologic Technologies Inc; label: 5'-32P
Description: as §1

[5] = biological target: T1, von Willebrand factor (VWF); experiment: filter; Bmax 49%; 2 mM CaCl2, 37 C; settings: Haematologic Technologies Inc, label: 5'-32P
Description: as §1

[6] = biological target: T1, von Willebrand factor (VWF); experiment: filter; Bmax 84%; 2 mM CaCl2, 37 C; settings: Haematologic Technologies Inc, label: 5'-32P
Description: as §1

[7] = biological target: T1, von Willebrand factor (VWF); experiment: filter; Bmax 57%; 2 mM CaCl2, 37 C; settings: tags: factor VIII free, Haematologic Technologies Inc; label: 5'-32P
Description: as §1

[8] = biological target: T1, von Willebrand factor (VWF); experiment: filter; Bmax 83%; 2 mM CaCl2, 37 C; settings: Haematologic Technologies Inc, label: 5'-32P
Description: as §1

[9] = biological target: T1, von Willebrand factor (VWF); experiment: filter; Bmax 66%; 2 mM CaCl2, 37 C; settings: tags: factor VIII free, Haematologic Technologies Inc; label: 5'-32P
Description: as §1

[10] = biological target: T1, von Willebrand factor (VWF); experiment: filter; Bmax 60%; 2 mM CaCl2, 37 C; settings: tags: factor VIII free, Haematologic Technologies Inc; label: 5'-32P
Description: as §1

[11] = biological target: T1, von Willebrand factor (VWF); experiment: filter; Bmax 67%; 2 mM CaCl2, 37 C; settings: tags: factor VIII free human purified VWF, Haematologic Technologies Inc; label: 5'-32P
Description: as §1

[12] = biological target: T1, von Willebrand factor (VWF); experiment: filter; Bmax 71%; 2 mM CaCl2, 37 C; settings: tags: factor VIII free human purified VWF, Haematologic Technologies Inc; label: 5'-32P
Description: as §1

[13] = tags: factor VIII free human purified VWF

B1: T25 vrt13 (ssRNA)
RNA: ACGAACUGCCCUCAGCUACUUUCAUGUUGCUGACGCACAGACGU
modifications: rAfCrGmAmAmCfUrGfCfCfCfUmCmAmGmCmUmAmCmUmUmUmCmAmUmGmUmUmGmCmUmGrAfCrGfCrAmCmAmGmAfCrGfU-idT
Q: Which Kd [1] does the source give for B1 here?
A: 1.9 nM

B2: T25 vrt15 (ssRNA)
RNA: B1 RNA
modifications: rAmCrGrArAfCfUrGfCfCfCfUfCrArGfCfUrAfCfUfUfUfCrAfUrGfUfUrGfCfUrGrAfCrGfCrAfCrArGrAfCmGfU-idT
Q: How did the Kd ([2]; tags: factor VIII free) turn out when B2 was run?
A: 7.3 nM

B3: T25 vrt17 (ssRNA)
RNA: B1 RNA
modifications: rAfCrGrArAfCmUrGfCfCfCfUfCrArGfCfUrAfCfUfUfUfCrAfUrGfUfUrGfCfUrGrAfCrGfCmAfCrArGrAfCrGfU-idT
Q: For B3, which Kd [3] is on record?
A: 23 nM

B4: T25 vrt21 (ssRNA)
RNA: B1 RNA
modifications: rAfCrGrArAfCfUrGfCfCfCmUfCrArGfCfUrAfCfUfUfUfCrAfUrGfUfUrGfCfUrGmAfCrGfCrAfCrArGrAfCrGfU-idT
Q: Which Kd [4] does the source give for B4 here?
A: 17 nM

Q: With ACGAACUGCCCUCGAUCGACGCACAGACGU (ssRNA, rAfCrGmAmAmCfUmGfCfCfCfUmCmGmAmUmCmGrAfCmGfCmAmCmAmGmAfCrGfU-idT) [T59 vrt3] as the binder, how does the Kd ([5]; tags: factor VIII free) read?
A: 288 nM

Q: For ACGAACUGCCCUCGAUCGACGCACAGACGU (ssRNA, mAfCmGmAmAmCfUrGfCfCfCfUmCmGmAmUmCmGrAfCrGfCrAmCmAmGmAfCmGfU-idT) [T59 vrt7], which Kd ([6]; tags: factor VIII free) is on record?
A: 0.8 nM

Q: For ACGAACUGCCCUCGAUCGACGCACAGACGU (ssRNA, mAmCmGmAmAmCfUrGfCfCfCmUmCmGmAmUmCmGmAfCmGfCmAmCmAmGmAmCmGfU-idT) [T59 vrt16], which Kd [7] is on record?
A: 132 nM

Q: For ACGAACUGCCCUCGAUCGACGCACAGACGU (ssRNA, mAmCmGmAmAmCmUrGfCfCfCmUmCmGmAmUmCmGmAfCrGfCmAmCmAmGmAmCmGfU-idT) [T59 vrt18], which Kd ([8]; tags: factor VIII free) is on record?
A: 5.7 nM

Q: Which Kd [9] does the source give for ACGAACUGCCCUCAGCACUUUCAUGUGCUGACGCACAGACGU (ssRNA, 2'-F C and U; 2'-OH A and G; 3' idT) [T33] here?
A: 15 nM

Q: How did the Kd ([2]; tags: factor VIII free) turn out when ACGAACUGCCCUCGUAAGACGCACAGACGUUUUUU (ssRNA, mAmCmGmAmAmCmUmGfCfCfCmUmCmGmUmAmAmGmAfCrGfCmAmCmAmGmAmCmGfUmUmUmUmUmUidT) [DTRI-012] was run?
A: 5.5 nM

Q: ACGAACUGCCCUCGUAAGACGCACAGACGUUUUUU (ssRNA, mAmCmGmAmAmCmUmGfCfCfCmUmCmGmUmAmAmGmAfCfGfCmAmCmAmGmAmCmGmUmUmUmUmUmUidT) [DTRI-034] was tested. Which Kd [10] did it give?
A: 2.8 nM

B5: T83 vrt1 (ssRNA)
RNA: ACGAACUGCCCUCGAUCGACGCACAGACGUAAAAA
modifications: 2'-F C2,U7,C9,C10,C11,U12,C20,C22,C28,U30; ribo A1,G3,G8,A19,G21,A23,G29; rest 2'-OMe; 3' idT
Q: For B5, which Kd [2, 13] is on record?
A: 2.1 nM

Q: With ACGAACUGCCCUCGAUCGACGCACAGACGUAAAAA (ssRNA, 2'-F C9,C10,C11,C20,G21,C22,U30; rest 2'-OMe; 3' idT) [T83 vrt6] as the binder, how does the Kd [11] read?
A: 209 nM

Q: How did the Kd [8, 13] turn out when ACGAACUGCCCUCGAUCGACGCACAGACGUAAAAA (ssRNA, 2'-F C9,C10,C11,C20,G21,C22; rest 2'-OMe; 3' idT) [T83 vrt7] was run?
A: 265 nM

Q: Which Kd [12] does the source give for ACGAACUGCCCUCGAUCGACGCACAGACGUACACG (ssRNA, 2'-F C9,C10,C11,C20,G21,C22,U30; rest 2'-OMe; 3' idT) [T84 vrt6] here?
A: 149 nM

Q: Which Kd [8, 13] does the source give for ACGAACUGCCCUCGAUCGACGCACAGACGU (ssRNA, 2'-F U7,C9,C10,C11,U12,C20,C22,U30; ribo A19,G21; rest 2'-OMe; 3' idT) [T59 vrt24] here?
A: 2.4 nM

B6: T89 vrt1 (ssRNA)
RNA: ACGAACUGCCCUCGUAUUAUUUCGACGCACAGACGU
modifications: 2'-F C2,U7,C9,C10,C11,U12,C26,C28,C34,U36; ribo A1,G3,G8,A25,G27,A29,G35; rest 2'-OMe; 3' idT
Q: Which Kd [6, 13] does the source give for B6 here?
A: 1.2 nM

Q: ACGAACUGCCCUCGUAUUAUUUCGACGCACAGACGU (ssRNA, 2'-F C9,C10,C11,C26,C28,U36; rest 2'-OMe; 3' idT) [T89 vrt3] was tested. Which Kd [5, 13] did it give?
A: 63 nM

Q: Which Kd [2, 13] does the source give for ACGAACUGCCCUCGUAUUAUUUCGACGCACAGACGU (ssRNA, 2'-F C9,C10,C11,C26,G27,C28,U36; rest 2'-OMe; 3' idT) [T89 vrt6] here?
A: 34.5 nM

Q: Which Kd [12] does the source give for ACGAACUGCCCUCUUUUUUGACGCACAGACGU (ssRNA, 2'-F C9,C10,C11,C22,G23,C24; rest 2'-OMe; 3' idT) [T94 vrt7] here?
A: 29 nM

Q: For ACGAACUGCCCUCGAUCGACGCACAGACGUACCCG (ssRNA, 2'-F C9,C10,C11,C20,G21,C22,U30; rest 2'-OMe; 3' idT) [T82 vrt6], which Kd [11] is on record?
A: 223 nM
